In publication PMC11297306 (Nature Communications, 2024):

Target: VLDLRLBD-Fc fusion protein (human, UniProt P98155-1 31-355)
Experiment: BLI; […] (2.6 µM) […]; kinetic buffer with 2 mM CaCl2
Settings: both partners purified

B1: receptor-associated protein (RAP) (natural protein, human, UniProt P30533 35-353, looked up)
chain: YSREKNQPKPSPKRESGEEFRMEKLNQLWEKAQRLHLPPVRLAELHADLKIQERDELAWKKLKLDGLDEDGEKEARLIRNLNVILAKYGLDGKKDARQVTSNSLSGTQEDGLDDPRLEKLWHKAKTSGKFSGEELDKLWREFLHHKEKVHEYNVLLETLSRTEEIHENVISPSDLSDIKGSVLHSRHTELKEKLRSINQGLDRLRRVSHQGYSTEAEFEEPRVIDLWDLAQSANLTDKELEAFREELKHFEAKIEKHNHYQKQLEIAHEKLRHAESVGDGERVSRSREKHALLEGRTKELGYTVKKHLQDLSGRISRAR
B1: binds.
